Biological target: 17b (CD4-induced human monoclonal antibody)
Assay: flow cytometry of transfected 293T cells: staining with 10 μg/ml 17b with or without sCD4-183, detection with APC anti-human IgG F(ab')2, arithmetic mean APC fluorescence of live (propidium iodide negative) single cells; 'All titrations …
Conditions: sCD4-183 at 0, 0.078125, 0.3125, 1.25, 5, 20, 80 μM (row value in value_extra.sCD4_183_uM), 20 min staining at room temperature, CAUTION: 17b staining of cell-surface trimers with sCD4, mostly reports trimer opening, normalized per Env, one titration each. Higher = more 17b staining of cell-surface Env. 17b's epitope is exposed, numbering: unknown, sequence starts at 1
[1] = AUC over sCD4-183 0-80 μM, parent: 0.907, scale: area under the normalized MFI curve, log10 x-axis
[2] = sCD4-183 0 μM, parent: 0.0187, scale: normalized MFI
[3] = sCD4-183 0.078125 μM, parent: 0.0465, scale: normalized MFI
[4] = sCD4-183 0.3125 μM, parent: 0.0578, scale: normalized MFI
[5] = sCD4-183 1.25 μM, parent: 0.0973, scale: normalized MFI
[6] = sCD4-183 5 μM, parent: 0.198, scale: normalized MFI
[7] = sCD4-183 20 μM, parent: 0.585, scale: normalized MFI
[8] = sCD4-183 80 μM, parent: 1, scale: normalized MFI

Substance | screen value [1] | screen value [2] | screen value [3] | screen value [4] | screen value [5] | screen value [6] | screen value [7] | screen value [8]
HIV-1 JR-CSF envelope glycoprotein gp160 (Env), P20871 JR-CSF_D167A | 2.23 | 0.0723 | 0.181 | 0.357 | 0.663 | 0.945 | 0.977 | 1
HIV-1 JR-CSF envelope glycoprotein gp160 (Env), P20871 JR-CSF_E172A | – | 0.0468 | 0.104 | 0.136 | 0.175 | 0.305 | 0.636 | 1
HIV-1 JR-CSF envelope glycoprotein gp160 (Env), P20871 JR-CSF_F176A | 3.09 | 0.522 | 0.639 | 0.761 | 0.839 | 0.927 | 0.946 | 1
HIV-1 JR-CSF envelope glycoprotein gp160 (Env), P20871 JR-CSF_F210A | – | 0.0285 | 0.184 | 0.319 | 0.527 | 0.908 | 1 | 0.997
HIV-1 JR-CSF envelope glycoprotein gp160 (Env), P20871 JR-CSF_F317A | 3.03 | 0.358 | 0.582 | 0.76 | 0.878 | 0.942 | 0.988 | 1
HIV-1 JR-CSF envelope glycoprotein gp160 (Env), P20871 JR-CSF_G324A | 2.77 | 0.248 | 0.463 | 0.601 | 0.836 | 0.959 | 0.96 | 1
HIV-1 JR-CSF envelope glycoprotein gp160 (Env), P20871 JR-CSF_H308A | 0.82 | 0.0195 | 0.0512 | 0.0642 | 0.0948 | 0.178 | 0.449 | 1
HIV-1 JR-CSF envelope glycoprotein gp160 (Env), P20871 JR-CSF_I307A | 3.25 | 0.46 | 0.691 | 0.871 | 0.946 | 0.908 | 1 | 0.979
HIV-1 JR-CSF envelope glycoprotein gp160 (Env), P20871 JR-CSF_I309A | 3.03 | 0.326 | 0.555 | 0.777 | 0.912 | 0.974 | 0.97 | 1
HIV-1 JR-CSF envelope glycoprotein gp160 (Env), P20871 JR-CSF_I323A | 2.75 | 0.211 | 0.421 | 0.606 | 0.838 | 0.988 | 1 | 0.946
HIV-1 JR-CSF envelope glycoprotein gp160 (Env), P20871 JR-CSF_K305A | 2.6 | 0.182 | 0.383 | 0.554 | 0.754 | 0.935 | 1 | 0.978
HIV-1 JR-CSF envelope glycoprotein gp160 (Env), P20871 JR-CSF_N156A | 2.72 | 0.272 | 0.437 | 0.595 | 0.796 | 0.913 | 1 | 0.984
HIV-1 JR-CSF envelope glycoprotein gp160 (Env), P20871 JR-CSF_N197K | 2.29 | 0.116 | 0.231 | 0.402 | 0.643 | 0.91 | 1 | 0.993
HIV-1 JR-CSF envelope glycoprotein gp160 (Env), P20871 JR-CSF_N301A | 2.59 | 0.178 | 0.314 | 0.564 | 0.801 | 0.974 | 0.958 | 1
HIV-1 JR-CSF envelope glycoprotein gp160 (Env), P20871 JR-CSF_N332A | 1.33 | 0.0498 | 0.0842 | 0.124 | 0.2 | 0.456 | 0.802 | 1
HIV-1 JR-CSF envelope glycoprotein gp160 (Env), P20871 JR-CSF_P470A | 1.6 | 0.119 | 0.215 | 0.298 | 0.381 | 0.492 | 0.645 | 1
HIV-1 JR-CSF envelope glycoprotein gp160 (Env), P20871 JR-CSF_S199A | 2.18 | 0.0532 | 0.183 | 0.348 | 0.593 | 0.931 | 0.997 | 1
HIV-1 JR-CSF envelope glycoprotein gp160 (Env), P20871 JR-CSF_T202A | 2.71 | 0.144 | 0.403 | 0.617 | 0.843 | 1 | 0.973 | 0.97
HIV-1 JR-CSF envelope glycoprotein gp160 (Env), P20871 JR-CSF_T303A | 2.51 | 0.128 | 0.303 | 0.493 | 0.793 | 0.976 | 1 | 0.93
HIV-1 JR-CSF envelope glycoprotein gp160 (Env), P20871 JR-CSF_T303I | 1.66 | 0.0358 | 0.0925 | 0.153 | 0.308 | 0.682 | 0.979 | 1
HIV-1 JR-CSF envelope glycoprotein gp160 (Env), P20871 JR-CSF_T320A | 2.47 | 0.13 | 0.297 | 0.477 | 0.754 | 0.942 | 1 | 0.974
HIV-1 JR-CSF envelope glycoprotein gp160 (Env), P20871 JR-CSF_V127A | 2.51 | 0.217 | 0.347 | 0.491 | 0.715 | 0.915 | 1 | 0.951
